Here are results for 2 molecules from patent publication US20240084004A1.

Where only a bound is given, the exact number is not on record here.

Test [1] deals with T1, canine PD-1 (canine Programmed Death Receptor 1) antigen (canine).
T1 sequence: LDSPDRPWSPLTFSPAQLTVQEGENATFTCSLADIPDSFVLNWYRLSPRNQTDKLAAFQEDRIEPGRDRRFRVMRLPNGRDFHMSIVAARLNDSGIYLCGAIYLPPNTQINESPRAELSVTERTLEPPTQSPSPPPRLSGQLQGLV
As to the kind of experiment: SPR (Biacore T200), canine PD-1 immobilized by amine coupling, antibody as analyte, 1:1 fit.

The target is the same in test [2]. Briefly: SPR (Biacore T200), canine PD-1 immobilized by amine coupling, antibody as analyte, 1:1 fit; off-rate below detection limit.

B1: Murine 2H9 (mouse anti-canine PD-1 monoclonal antibody) (antibody, V domains shown)
VH: EVQLQQSVAELVRPGASVKLSCTASGFNIKNTYMHWIKQRPEQGLEWIGRIAPANVDTKYAPKFQGKATITADTSSNTAYMQLSTLTSEDTAIYYCVLIYYDYDGDIDVWGTGTTVTVSS
VL: DIQMNQSPSSLSASLGDTITITCHASQNINVWLSWYQQRPGNIPKLLIYKASHLHTGVPSRFSGSGSGTGFTLTISSLQPEDIATYYCQQGQSWPLTFGAGTKLELK
In test [1], B1 showed an on-rate constant (kon) of 23000 M⁻¹ s⁻¹. In addition, in test [2], the Kd is < 0.2 nM and the koff was < 5e-06 s⁻¹.

B2: Murine 3B6 (mouse anti-canine PD-1 monoclonal antibody) (antibody, V domains shown)
VH: QIQLVQSGPELKKPGETVKISCKASGYTFTTYGMSWVKQAPGKGLKWMGWINIYSGIPTYADDFKGRFAFSLETSASTAYLQIDNLKNEDTATYFCARFDGPDYWGQGTTLTVSS
VL: DIVMTQSPSSLAVSVGRKVTMSCKSSQSLLNSVNQKNYLAWYQQKPGQSPKVLVYFASARVSGVPDRFIGSGSGTDFTLAISSVQAEDLTTYFCQQYFSTPLTFGAGTKLELK
In test [1], B2 yielded a Kd of 2 nM, a koff of 3.4e-05 s⁻¹ and a kon of 18000 M⁻¹ s⁻¹.

What is called kon is the second-order rate constant of association. The low end stands for slower complex formation, the high end for faster complex formation. The Kd is the equilibrium constant for the complex coming apart. Lower therefore signals tighter binding. The term koff denotes the rate constant with which the complex falls apart.
